Source: patent US20060122119A1, “Peptides for use in antitumor immunotherapy” (Institut Nat'l De La Sante Et De La Recherche Med., priority 2002, published 2006)

Legend:
HLA-B*3501 (human) [1] = conditions: remark: other sources report otherwise
HLA-B*3501 (human) [2] = conditions: remark: other sources report otherwise; remark: listed apart in the source

Stability (half-life of the peptide on HLA-B*35) (HLA-B*3501 (human) [1]): > 6 h | RA (relative affinity) (HLA-B*3501 (human) [2]): 2.3
Binder: EVDPIGHLY [MAGE-A3 peptide 168-176 …]
